Experimental data from patent US20250012721A1, “FLUORESCENCE DETECTION KIT FOR ACTIVATED COMPLEMENT C1s, DETECTION METHOD USING SAME, AND USE THEREOF” (JIANGSU UNIVERSITY, priority 2022, published 2025).

Molecular target: T1, activated C1s (Homo sapiens, UniProt P09871)
T1 construct: purchased Complement Technology
T1 sequence (P09871 16-437 limits assumed): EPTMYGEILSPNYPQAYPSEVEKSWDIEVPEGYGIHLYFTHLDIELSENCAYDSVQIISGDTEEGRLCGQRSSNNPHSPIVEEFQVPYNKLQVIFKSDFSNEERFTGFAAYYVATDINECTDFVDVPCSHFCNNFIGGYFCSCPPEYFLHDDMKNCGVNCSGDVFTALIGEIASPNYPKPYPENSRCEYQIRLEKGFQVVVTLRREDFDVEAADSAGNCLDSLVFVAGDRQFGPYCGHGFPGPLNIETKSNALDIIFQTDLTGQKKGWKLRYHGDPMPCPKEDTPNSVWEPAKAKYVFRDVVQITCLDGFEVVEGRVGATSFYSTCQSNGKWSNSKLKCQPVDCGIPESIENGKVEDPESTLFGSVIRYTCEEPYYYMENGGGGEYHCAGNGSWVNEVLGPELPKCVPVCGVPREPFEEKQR
T1 sequence (P09871 438-688 limits assumed): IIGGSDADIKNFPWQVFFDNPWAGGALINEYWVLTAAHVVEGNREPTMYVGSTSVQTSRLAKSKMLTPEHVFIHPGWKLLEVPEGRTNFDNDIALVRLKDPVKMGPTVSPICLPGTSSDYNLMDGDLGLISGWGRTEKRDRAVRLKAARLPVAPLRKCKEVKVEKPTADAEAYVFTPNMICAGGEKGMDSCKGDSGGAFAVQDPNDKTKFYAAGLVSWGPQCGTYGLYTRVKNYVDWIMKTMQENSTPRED
Test: N-carboxybenzyloxythiobenzyl ester/DTNB colorimetric detection of enzymatic activity of C1s standard
Assay type: biochemical
Conditions: for Enzymatic activity of C1s standards: conversion from Example 4
Excerpt: In the present disclosure, the enzymatic activity of activated C1s was detected in a sample to be tested. Therefore, it was necessary to determine the enzymatic activity of a C1s standard used in the experiment and to prepare a standard curve for later C1s enzymatic activity. The enzymatic activity of the activated C1s was detected by an N-carboxybenzyloxythiobenzyl ester/5,5′-dithiobis(2-nitrobenzoic acid) colorimetric method. The method specifically included the steps as follows: • (1) Materials: 1) Analysis buffer: 50 mM Tris, 250 mM NaCl, pH=8.0; • 2) substrate: N-carboxybenzyloxythiobenzyl ester (ZKSBzl), dissolved in 10 mM dimethyl sulfoxide; and • 3) 5,5′-dithiobis(2-nitrobenzoic acid) (DTNB), dissolved in 10 mM dimethyl sulfoxide. • (2) Detection of C1s activity units: • 1. The C1s standard was diluted to 0.2 μg/mL with an assay buffer. • 2. The DNTB was added to the assay buffer at a final concentration of 200 μM, and a substrate was added to the assay buffer at a final concentration of 1,000 μM. • 3. 50 μL of 0.2 ng/μL C1s was added into a plate. • 4. 50 μL of a mixture including 1,000 μM substrate/200 μM DTNB was added to the wells to start a reaction. • 5. An absorbance at 5 min was read at 405 nm with a microplate reader. • (3) Calculation of activated C1s:
In subsequent experiments, the enzymatic activity of the C1s standard was defined in this way.

B1: C1s standard: humanized or recombinant C1s standard; activated C1s used as calibrator (protein)
chain 1: T1 sequence (P09871 16-437 limits assumed)
chain 2: T1 sequence (P09871 438-688 limits assumed)
enzymatic activity (1 μg/mL C1s standard): 0.91 pmol/min/µg
Enzymatic activity of C1s standards (6.25 μg/mL): 5.7 pmol/min/µg
Enzymatic activity of C1s standards (12.5 μg/mL): 11.4 pmol/min/µg
Enzymatic activity of C1s standards (25 μg/mL): 22.8 pmol/min/µg
Enzymatic activity of C1s standards (50 μg/mL): 45.5 pmol/min/µg
Enzymatic activity of C1s standards (100 μg/mL): 91 pmol/min/µg
Enzymatic activity of C1s standards (200 μg/mL): 182 pmol/min/µg
